Data reported in US8067155B2, “Receptor tyrosine kinase assays” (DiscoveRx Corporation, priority 2008, dated 2011).
Each block holds one molecule with its values, some of them ahead of it.

Tests used:
[1] = target: TrkB fused to a low affinity small fragment of β-galactosidase (TrkB-PK) (UniProt Q16620); assay: cell-based or functional assay
[2] = target: TrkC fused to a low affinity small fragment of β-galactosidase (TrkC-PK) (UniProt Q16288); assay: cell-based or functional assay
TrkC = target: T1, TrkC (Homo sapiens, UniProt Q16288); assay: PathHunter TrkC-PK / SH2-containing protein-EA assay in U2OS cells, agonist mode; assay type: cell-based; details: 3 hours at room temperature
T1 construct: host or cells: U2OS
Protocol: FIG. 8 is a graph of the dose response in U2OS cells of TrkC fused to a low affinity small fragment of β-galactosidase (TrkC-PK). Cells were plated in a 384-well plate at 10,000 cells/well, stimulated with NT3 (Peprotech, Cat #/450-03), a known ligand for TrkC, for 3 hours at room temperature according to the assay procedure provided. Following stimulation, detection reagents were added and signal was detected after 1 hour using the PathHunter® Detection Kit (93-0001).
(§1) Generally, the expression constructs for the fusion proteins includes at least (in order of 5′ to 3′) a promoter, followed by the receptor or SH2 domain, followed by a linker, followed by either the EA or PK. […] SH2-EA complex formation with the RTK was detected with 50% (v/v) of PathHunter® Detection Reagent (Dx 93-0001, PathHunter reagents are available from DiscoveRx, Corp., Fremont, Calif.) (Lysis buffer active ingredient 1% CHAPS, Emerald II™ and Galacton Star™ are from Applied Biosystems).
(§2) 10K cells/well TrkC-PK SH2-containing protein-EA double stable cells were plated in a 384-well plate, stimulated with NT3 (Peprotech, Cat #/450-03), a known ligand for TrkC for 3 hours at room temperature according to the assay procedure provided. Following stimulation, detection reagents were added and signal was detected after 1 hour using the PathHunter® Detection Kit (93-0001).

insulin receptor (INSR) = target: T2, insulin receptor (INSR) (Homo sapiens, UniProt P06213); assay: PathHunter INSR-PK / SH2-containing protein-EA assay in U2OS cells, agonist mode; assay type: cell-based; details: U2OS INSR-PK cells, 10,000 cells/well, 3 hours at room temperature
T2 construct: host or cells: U2OS

TrkB = target: T3, TrkB (Homo sapiens, UniProt Q16620); assay: PathHunter TrkB-PK / SH2-containing protein-EA assay in U2OS cells, agonist mode; assay type: cell-based; details: 3 hours at room temperature
T3 construct: host or cells: U2OS
Protocol: FIG. 7 is a graph of the dose response in U2OS cells of TrkB fused to a low affinity small fragment of β-galactosidase (TrkB-PK). Cells were plated in a 384-well plate at 10,000 cells/well stimulated with BDNF (Peprotech, Cat #/450-02), a known ligand for TrkB, for 3 hours at room temperature according to the assay procedure provided. Following stimulation, detection reagents were added and signal was detected after 1 hour using the PathHunter® Detection Kit (93-0001).
as §1
as §2, with “cells/well TrkB-PK” for “cells/well TrkC-PK”, “stable cell” for “stable cells”, “with BDNF” for “with NT3”, “Cat #/450-02),” for “Cat #/450-03),”, “for TrkB” for “for TrkC”

[3] = target: G-CSFR (granulocyte-colony stimulating factor receptor) fused to a low affinity small fragment of … (UniProt Q99062 25-836, tyrosine-phosphorylated on activation (by Jak2); sites not stated); assay: cell-based or functional assay
Chain of G-CSFR (granulocyte-colony stimulating factor receptor) fused to a low affinity small fragment of … (Q99062 other isoform, or with tags, fused parts or gaps): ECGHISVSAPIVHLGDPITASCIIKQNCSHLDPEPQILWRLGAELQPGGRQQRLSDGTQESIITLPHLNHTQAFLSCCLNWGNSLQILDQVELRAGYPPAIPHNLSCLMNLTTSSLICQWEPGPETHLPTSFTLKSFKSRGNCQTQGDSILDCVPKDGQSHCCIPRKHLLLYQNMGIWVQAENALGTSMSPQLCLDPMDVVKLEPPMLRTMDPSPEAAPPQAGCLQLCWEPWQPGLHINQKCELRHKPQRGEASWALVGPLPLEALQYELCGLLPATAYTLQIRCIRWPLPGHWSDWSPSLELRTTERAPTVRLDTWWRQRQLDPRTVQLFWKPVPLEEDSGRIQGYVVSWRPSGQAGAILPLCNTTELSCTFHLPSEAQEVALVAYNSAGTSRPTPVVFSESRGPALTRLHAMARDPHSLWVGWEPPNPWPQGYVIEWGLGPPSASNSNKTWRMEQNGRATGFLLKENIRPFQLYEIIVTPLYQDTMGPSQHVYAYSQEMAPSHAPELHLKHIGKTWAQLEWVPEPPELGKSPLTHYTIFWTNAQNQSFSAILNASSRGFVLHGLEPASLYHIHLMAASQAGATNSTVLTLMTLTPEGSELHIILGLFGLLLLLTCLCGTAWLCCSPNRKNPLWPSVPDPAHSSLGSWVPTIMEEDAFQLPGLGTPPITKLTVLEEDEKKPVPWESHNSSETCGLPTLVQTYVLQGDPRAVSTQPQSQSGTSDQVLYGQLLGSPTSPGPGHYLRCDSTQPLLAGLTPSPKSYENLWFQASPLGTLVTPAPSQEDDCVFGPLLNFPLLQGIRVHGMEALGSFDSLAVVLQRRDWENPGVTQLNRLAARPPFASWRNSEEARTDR

Molecule: BDNF (Peprotech, Cat #/450-02) (from UniProt P23560 129-247) (ligand)
EC50 of the BDNF dose response (PathHunter β-galactosidase complementation of TrkB-PK and SH2-containing protein-EA in U2OS cells) [1]: 4.21 ng/mL
assay window of the BDNF dose response (PathHunter β-galactosidase complementation of TrkB-PK and SH2-containing protein-EA in U2OS cells) [1]: 4 fold

Molecule: NT3: NT3 (Peprotech, Cat 450-03), a known ligand for TrkC
EC50 (TrkC; U2OS TrkC-PK cells, 10,000 cells/well): 7 ng/mL
assay window (TrkC; U2OS TrkC-PK cells): 8.1 fold

Molecule: IGF1: IGF1 (Peprotech, Cat AF-100-11), a known ligand for IGF1R
EC50 (insulin receptor (INSR)): 2.0 ng/mL

B2: G-CSF (Peprotech 300-23) (ligand, UniProt P09919-2 31-204, looked up)
chain: TPLGPASSLPQSFLLKCLEQVRKIQGDGAALQEKLCATYKLCHPEELVLLGHSLGIPWAPLSSCPSQALQLAGCLSQLHSGLFLYQGLLQALEGISPELGPTLDTLQLDVADFATTIWQQMEELGMAPALQPTQGAMPAFASAFQRRAGGVLVASHLQSFLEVSYRVLRHLAQP
EC50 of the G-CSF dose response (PathHunter β-galactosidase complementation of CSF3R-PK and SHC1-EA in U2OS cells, Jak2 construct) [3]: 4 ng/mL
assay window of the G-CSF dose response (PathHunter β-galactosidase complementation of CSF3R-PK and SHC1-EA in U2OS cells, Jak2 construct) [3]: 7 fold

More lines, now with the values ahead:

EC50 of the NT3 dose response (PathHunter β-galactosidase complementation of TrkC-PK and SH2-containing protein-EA in U2OS cells) [2]: 7 ng/mL
assay window of the NT3 dose response (PathHunter β-galactosidase complementation of TrkC-PK and SH2-containing protein-EA in U2OS cells) [2]: 8.1 fold
Molecule: NT3 (Peprotech, Cat #/450-03) (from UniProt P20783 139-257) (ligand)

EC50 (TrkB; U2OS TrkB-PK cells, 10,000 cells/well): 4.21 ng/mL
assay window (TrkB; U2OS TrkB-PK cells): 4.0 fold
B1: BDNF: BDNF (Peprotech, Cat 450-02), a known ligand for TrkB (protein, UniProt P23560 19-247, looked up)
Neurotrophic factor BDNF …: APMKEANIRGQGGLAYPGVRTHGTLESVNGPKAGSRGLTSLADTFEHVIEELLDEDQKVRPNEENNKDADLYTSRVMLSSQVPLEPPLLFLLEEYKNYLDAANMSMRVRRHSDPARRGELSVCDSISEWVTAADKKTAVDMSGGTVTVLEKVPVSKGQLKQYFYETKCNPMGYTKEGCRGIDKRHWNSQCRTTQSYVRALTMDSKKRIGWRFIRIDTSCVCTLTIKRGR
